# According to patent US20200397827A1, “CHONDROCYTE PROLIFERATION PROMOTER, CHONDROCYTE PROLIFERATION PROMOTION METHOD, SCREENING METHOD FOR CHONDROCYTE PROLIFERATION PROMOTERS” (Tokyo University of Science Foundation, priority 2018, published 2020):
# B1: adiponectin: adiponectin (BioVendor), protein of the CTRP family; human amino acid sequence SEQ ID NO: 1 (protein, listed as Homo sapiens)
# chain: MLLLGAVLLLLALPGHDQETTTQGPGVLLPLPKGACTGWMAGIPGHPGHNGAPGRDGRDGTPGEKGEKGDPGLIGPKGDIGETGVPGAEGPRGFPGIQGRKGEPGEGAYVYRSAFSVGLETYVTIPNMPIRFTKIFYNQQNHYDGSTGKFHCNIPGLYYFAYHITVYMKDVKVSLFKKDKAMLFTYDQYQENNVDQASGSVLLHLEVGDQVWLQVYGEGERNGLYADNDNDSTFTGFLLYHDTN
# B2: recombinant human CTRP6: recombinant human CTRP6 (Aviscera Bioscience), C1q/TNF-related protein family; amino acid sequence SEQ ID NO: 3 (protein, listed as Homo sapiens)
# chain: MQWLRVRESPGEATGHRVTMGTAALGPVWAALLLFLLMCEIPMVELTFDRAVASGCQRCCDSEDPLDPAHVSSASSSGRPHALPEIRPYINITILKGDKGDPGPMGLPGYMGREGPQGEPGPQGSKGDKGEMGSPGAPCQKRFFAFSVGRKTALHSGEDFQTLLFERVFVNLDGCFDMATGQFAAPLRGIYFFSLNVHSWNYKETYVHIMHNQKEAVILYAQPSERSIMQSQSVMLDLAYGDRVWVRLFKRQRENAIYSNDFDTYITFSGHLIKAEDD
# B3: recombinant human CTRP3: recombinant human CTRP3 (Aviscera Bioscience), C1q/TNF-related protein family; amino acid sequence SEQ ID NO: 2 (protein, listed as Homo sapiens)
# chain: MLWRQLIYWQLLALFFLPFCLCQDEYMESPQTGGLPPDCSKCCHGDYSFRGYQGPPGPPGPPGIPGNHGNNGNNGATGHEGAKGEKGDKGDLGPRGERGQHGPKGEKGYPGIPPELQIAFMASLATHFSNQNSGIIFSSVETNIGNFFDVMTGRFGAPVSGVYFFTFSMMKHEDVEEVYVYLMHNGNTVFSMYSYEMKGKSDTSSNHAVLKLAKGDEVWLRMGNGALHGDHQRFSTFAGFLLFETK
# What was measured:
# Type in all cases: cell-based, mouse
# ATDC5 cells [1] = assay: Cell proliferation of ATDC5 cells in the presence or absence of AdipoR1 blocker
# Experimental: ATDC5 cells were seeded into a 12-well plate at a cell density of 1×10^4/well and cultured in the presence or absence of 10 μg/ml AdipoR1 blocker (GeneTex) and in the presence or absence of 100 ng/ml recombinant human CTRP6 (Aviscera Bioscience) for 2 days (all n=4). As a medium, a HAM's F-12 medium containing 5% FBS and 1% penicillin/streptomycin was used.
# Furthermore, 100 ng/ml adiponectin (BioVendor), 100 ng/ml AdipoRon (AdipoGen), or 50 ng/ml recombinant human CTRP3 (Aviscera Bioscience) was used instead of 100 ng/ml recombinant human CTRP6 to culture in the same manner as described above (all n=4). Meanwhile, when the AdipoRon was used, a culture period was 1 day.
# After culturing, the number of cells was counted with a hemocytometer.
# ATDC5 cells [2] = assay: Effect of MAPK inhibitor on cell proliferation of chondrocyte; details: FIG. 3C
# Experimental: ATDC5 cells were seeded into a 48-well plate at a cell density of 2×10^4/well and cultured in the presence or absence of 50 ng/ml recombinant human CTRP6 (Aviscera Bioscience) for 2 days. A HAM's F-12 medium containing 5% FBS and 1% penicillin/streptomycin was used as a medium, and a carrier (DMSO), 1 μM ERK1/2 inhibitor (U0126, Sigma), 1 μM JNK inhibitor (SP600125, Sigma), or 1 μM p38 inhibitor (SB239063, Sigma) was further added thereto (all n=4).
# After 2 day-culture, the number of cells was counted with a hemocytometer.
# [3] = tested on: primary chondrocytes of Clqtnf6−/− mice; assay: Chondrogenesis of primary chondrocytes (Alcian blue staining); details: 0, 2.5, 5, 10 μg/ml, 7 days, FIG. 2B
# Experimental: Costal cartilage tissues from neonates (5 to 6 day-old) of the Clqtnf6^−/− mice and the wild-type mice were enzymatically digested with DMEM containing 0.5 mg/ml collagenase D to thereby obtain primary chondrocytes. Then, 2×10^5 cells were suspended into 10 μL of DMEM containing 10% FCS, seeded into a 24-well plate, and cultured at 37° C. for 2 hours (both n=3). Then, DMEM containing 10% FCS was added thereto at a volume of 500 μL per well and culturing was continued for 7 days. Then, the cells were fixed with 10% neutral buffered formalin, washed with 0.1 N HCl, and then stained with a 1% Alcian blue 8GX solution (Sigma-Aldrich) in order to confirm chondrogenesis.
# In the same manner as described above, primary chondrocytes were obtained from the Clqtnf6^−/− mice, and then 2×10^5 cells were suspended into 10 μL of DMEM containing 10% FCS, seeded into a 24-well plate, and cultured at 37° C. for 2 hours. Then, DMEMs containing 10% FCS and various concentrations (0, 2.5, 5, 10 μg/ml; all n=3) of recombinant human CTRP6 (Aviscera Bioscience) were added thereto at a volume of 500 μL per well and culturing was continued for 7 days. Then, the cells were fixed with 10% neutral buffered formalin, washed with 0.1 N HCl, and then stained with a 1% Alcian blue 8GX solution (Sigma-Aldrich) in order to confirm chondrogenesis.
# ATDC5 cells [4] = assay: Cell proliferation of chondrocyte line, cell count with hemocytometer; details: 0, 100, 500 ng/ml, 4 and 7 day-culture, FIG. 3A
# Experimental: In Test Example 3, a function of CTRP6 was analyzed using a mouse chondrocyte line ATDC5.
# ATDC5 cells were seeded into a 12-well plate at a cell density of 5×10^4/well and cultured in the presence of various concentrations (0, 100, 500 ng/ml; all n=3) of recombinant human CTRP6 (Aviscera Bioscience). As a medium, a HAM's F-12 medium containing 5% FBS and 1% penicillin/streptomycin was used.
# After 4 and 7 day-culture, the number of cells was counted with a hemocytometer.
# ERK1/2 [5] = assay: Phosphorylation of MAPK, western blotting; details: ATDC5; 10 ng/ml; 1, 5, 15 or 30 min; FIG. 3B
# Experimental: ATDC5 cells were seeded into a 60 mm Petri dish at a cell density of 1×10^6/well and cultured in a serum-free HAM's F-12 medium for 4 hours. Then, the resultant was washed with PBS and then cultured in a serum-free HAM's F-12 medium containing 10 ng/ml recombinant human CTRP6 (Aviscera Bioscience) for 1 min, 5 min, 15 min, or 30 min. Then, the cells were washed with a phosphatase-inhibiting buffer supplemented with PhosSTOP (Sigma) and then lysed with a lysis buffer (0.1% TritonX-100, 100 mM NaCl, 50 mM Tris-HCl (pH 7.5)).
# Then, the resultant cell lysate was subjected to electrophoresis on a 12.5% SDS-PAGE gel and proteins were transferred onto a PVDF membrane. The membrane onto which the proteins had been transferred was blocked by shaking in 5% BSA/TBS at room temperature for 1 hour. After blocking, the membrane was shaken in the presence of a primary antibody (rabbit monoclonal antibody) at room temperature for 1 hour to thereby undergo a primary antibody reaction. […] Intensity of each band was quantified with ImageJ software (NIH).
# ATDC5 cells [6] = assay: Cell proliferation of ATDC5 cells with adiponectin receptor siRNA introduced, recombinant human CTRP6; details: 100 ng/ml, 1 day
# Experimental: ATDC5 cells were seeded into a 24-well plate at a cell density of […] and cultured in a HAM's F-12 medium containing 2.5% FBS for 24 hours. After culturing, 30 pmol of AdipoR1 siRNA, 30 pmol of AdipoR2 siRNA, 30 pmol of control siRNA-1, 6 pmol of AdipoR3 siRNA, 6 pmol of AdipoR4 siRNA, or 6 pmol of control siRNA-2 was introduced (transfected) thereinto and culturing was continued for 48 hours. Lipofectamine RNAiMAX (Invitrogen) was used to introduce the siRNAs.
# Meanwhile, the AdipoR3 siRNA, the AdipoR4 siRNA, and the control siRNA-2 were purchased from IDT Teck (TriTECTa RNAi Kit). Base sequences of the AdipoR1 siRNA, the AdipoR2 siRNA, and the control siRNA-1 were as follows:
# (§1) Forty-eight hours after the introduction of the siRNAs, the ATDC5 cells were seeded into a 48-well plate at a cell density of 2×10^4/well and cultured in the presence or absence of 100 ng/ml recombinant human CTRP6 (Aviscera Bioscience) for 1 day (all n=4). After that, the number of cells was counted with a hemocytometer.
# ERK1/2 [7] = assay: ERK phosphorylation in ATDC5 cells with adiponectin receptor siRNA introduced, western blotting; details: 10 ng/ml, 15 min
# Experimental: ATDC5 cells into which the siRNA had been introduced were seeded into a 60 mm Petri dish at a cell density of 1×10^6/well and cultured in a serum-free HAM's F-12 medium for 4 hours. Then, the cells were washed with PBS and then cultured in a serum-free HAM's F-12 medium containing 10 ng/ml recombinant human CTRP6 (Aviscera Bioscience) for 15 min. Then, the cells were washed with a phosphatase-inhibiting buffer supplemented with PhosSTOP (Sigma) and then lysed with a lysis buffer (0.1% TritonX-100, 100 mM NaCl, 50 mM Tris-HCl (pH 7.5)). Western blotting analysis was performed in the same manner as in Test Example 3 (2).
# ATDC5 cells [8] = assay: Cell proliferation of ATDC5 cells with adiponectin receptor siRNA introduced, recombinant human CTRP3; details: 50 ng/ml, 2 days, FIG. 6A
# Experimental: AdipoR1 siRNA, AdipoR2 siRNA, control siRNA-1, AdipoR3 siRNA, AdipoR4 siRNA, or control siRNA-2 was introduced (transfected) into ATDC5 cells in the same manner as in Test Example 4 (1).
# as §1, with “50” for “100”, “CTRP3” for “CTRP6”, “2 days” for “1 day”
# [9] = 100 ng/ml, 2 days, FIGS. 5A, 5B
molecule,measurement,setting,value
"O=C(COc1ccc(C(=O)c2ccccc2)cc1)NC1CCN(Cc2ccccc2)CC1 [AdipoRon, reference compound]",number of cells (cell proliferation),"ATDC5 cells [1]; 100 ng/ml, culture period 1 day, FIG. 5C",facilitated cell proliferation
"N#CC(=C(/N)Sc1ccccc1N)/C(C#N)=C(/N)Sc1ccccc1N [ERK1/2 inhibitor, U0126, reference compound]",number of cells (cell proliferation) with MAPK inhibitor added,"ATDC5 cells [2]; 1 μM inhibitor, presence or absence of 50 ng/ml recombinant human CTRP6, 2 days",inhibited cell proliferation
B1,number of cells (cell proliferation),ATDC5 cells [1]; [9],facilitated cell proliferation
B2,chondrogenesis (intensity of Alcian blue stained cells),[3],chondrogenesis was promoted in a recombinant human CTRP6 concentration-dependent manner
same,number of cells (cell proliferation),ATDC5 cells [4],facilitated cell proliferation
same,phosphorylation of MAPKs (ERK1/2),ERK1/2 [5],facilitated phosphorylation of ERK1/2
same,number of cells (cell proliferation),"ATDC5 cells [2]; 50 ng/ml, 2 days",facilitated cell proliferation
same,"number of cells (cell proliferation), AdipoR1 siRNA introduced","ATDC5 cells [6]; ATDC5 with AdipoR1 siRNA, FIG. 4A",facilitation of cell proliferation was not confirmed
same,"number of cells (cell proliferation), AdipoR4 siRNA introduced","ATDC5 cells [6]; ATDC5 with AdipoR4 siRNA, FIG. 4B",facilitation of cell proliferation was not confirmed
same,"phosphorylation of ERK1/2, AdipoR1 siRNA introduced","ERK1/2 [7]; ATDC5 with AdipoR1 siRNA, FIG. 4C",phosphorylation of ERK1/2 was not facilitated
same,"phosphorylation of ERK1/2, AdipoR4 siRNA introduced","ERK1/2 [7]; ATDC5 with AdipoR4 siRNA, FIG. 4D",phosphorylation of ERK1/2 was not facilitated
same,number of cells (cell proliferation),ATDC5 cells [1]; [9],facilitated cell proliferation
same,number of cells (cell proliferation),"ATDC5 cells [1]; 2 days, second statement of b158 (FIG. 5D, 50 ng/ml recombinant human CTRP3)",also facilitated
B3,"number of cells (cell proliferation), AdipoR2 siRNA introduced",ATDC5 cells [8],facilitation of cell proliferation was not confirmed
